Results reported in publication doi:10.1101/2020.02.24.961524.

Molecular target: N-terminally SNAP-tagged GLP-1R (glucagon-like peptide-1 receptor) (UniProt P43220)
Test: FRET or BRET

Chain of UniProt P43220 (P43220 24-463): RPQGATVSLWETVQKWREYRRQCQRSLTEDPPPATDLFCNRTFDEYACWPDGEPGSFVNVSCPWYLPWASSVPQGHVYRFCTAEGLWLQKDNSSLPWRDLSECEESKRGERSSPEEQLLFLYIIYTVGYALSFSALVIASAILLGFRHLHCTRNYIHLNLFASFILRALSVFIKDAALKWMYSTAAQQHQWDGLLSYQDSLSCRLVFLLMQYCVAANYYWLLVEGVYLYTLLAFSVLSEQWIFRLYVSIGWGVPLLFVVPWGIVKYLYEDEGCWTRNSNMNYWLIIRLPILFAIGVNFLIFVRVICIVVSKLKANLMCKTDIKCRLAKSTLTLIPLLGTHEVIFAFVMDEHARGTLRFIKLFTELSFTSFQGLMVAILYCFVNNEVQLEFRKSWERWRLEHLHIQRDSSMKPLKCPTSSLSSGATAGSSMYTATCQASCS

For “exendin-4 (from UniProt P26349 48-87) (peptide)”, the fold affinity relative to GLP-1 was 5 fold.
